According to patent US20250011363A1, “OPTIMIZED SHORTENED PEPTIDE THAT BINDS TO ACETYLCHOLINE RECEPTOR, AND USE THEREOF” (SKINMED CO., LTD., priority 2021, published 2025):

What follows are substances tested against acetylcholine receptor (Homo sapiens, UniProt P02708) (assay: SPR binding affinity (RU) of optimized 5mer/6mer/7mer peptides, Examples 6-7). Details: SPR, Resonance Units; peptides tested at 10 μM; 6mer-1 Bottom sequence (Table 11).
Method in brief: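 Peptides were tested at 10 μM by surface plasmon resonance against the receptor, with binding reported as response units. Library sequences were built from frequent (top) or infrequent (bottom) amino acid combinations in 5mer, 6mer-1 and 6mer-2 series.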

Sequence of acetylcholine receptor (P02708 21-457): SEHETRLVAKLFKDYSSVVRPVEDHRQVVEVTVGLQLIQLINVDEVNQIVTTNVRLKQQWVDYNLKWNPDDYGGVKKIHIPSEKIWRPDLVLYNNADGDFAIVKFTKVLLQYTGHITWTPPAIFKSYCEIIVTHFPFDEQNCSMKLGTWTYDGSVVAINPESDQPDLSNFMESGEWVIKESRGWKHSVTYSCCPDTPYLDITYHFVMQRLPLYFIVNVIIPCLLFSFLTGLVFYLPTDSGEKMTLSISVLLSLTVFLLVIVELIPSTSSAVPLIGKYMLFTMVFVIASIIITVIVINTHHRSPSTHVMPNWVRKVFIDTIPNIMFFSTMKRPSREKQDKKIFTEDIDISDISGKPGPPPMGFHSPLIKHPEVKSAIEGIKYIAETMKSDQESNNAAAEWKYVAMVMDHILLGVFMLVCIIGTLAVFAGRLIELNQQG

Row | Substance | Binding affinity [Ru]
1 | 6mer-1-601 (KKEWNK) | 27
2 | 6mer-1-602 (RKAEKR) | 18
3 | 6mer-1-603 (KRPHFK) | 13
4 | 6mer-1-604 (KKFTKK) | 24
5 | 6mer-1-605 (RKNADR) | 20
6 | 6mer-1-606 (RREWFR) | 15
7 | 6mer-1-607 (KKDHFR) | 22
8 | 6mer-1-608 (KKACMR) | 18
9 | 6mer-1-609 (RKNPVR) | 24
10 | 6mer-1-610 (KKHHER) | 27
11 | 6mer-1-611 (KKNCHK) | 23
12 | 6mer-1-612 (KRIMER) | 17
13 | 6mer-1-613 (KRIMKK) | 14
14 | 6mer-1-614 (KKEEER) | 12
15 | 6mer-1-615 (KKTSER) | 18
16 | 6mer-1-616 (KKNTIK) | 31
17 | 6mer-1-617 (KRHNVR) | 31
18 | 6mer-1-618 (RKCHVK) | 19
19 | 6mer-1-619 (KKIDKR) | 23
20 | 6mer-1-620 (RRKTAK) | 11
21 | 6mer-1-621 (RRMAGK) | 30
22 | 6mer-1-622 (KKCPNR) | 18
23 | 6mer-1-623 (RRTDWR) | 21
24 | 6mer-1-624 (KKPPAK) | 30

Row | Substance | Binding affinity [Ru]
25 | 6mer-1-625 (KREDKK) | 33
26 | 6mer-1-626 (KRPDNR) | 27
27 | 6mer-1-627 (RRTWWR) | 29
28 | 6mer-1-628 (RRENEK) | 23
29 | 6mer-1-629 (RKMDAK) | 11
30 | 6mer-1-630 (KRMEPR) | 14
31 | 6mer-1-631 (RRYSDR) | 13
32 | 6mer-1-632 (RKDTAR) | 17
33 | 6mer-1-633 (RKIDAK) | 16
34 | 6mer-1-634 (KKNTMR) | 12
35 | 6mer-1-635 (KKTTWK) | 33
36 | 6mer-1-636 (RKYKDR) | 27
37 | 6mer-1-637 (RRFEFK) | 33
38 | 6mer-1-638 (KKESHR) | 20
39 | 6mer-1-639 (KRPNVR) | 24
40 | 6mer-1-640 (RRNCWR) | 25
41 | 6mer-1-641 (RREMFK) | 21
42 | 6mer-1-642 (KKYNGK) | 24
43 | 6mer-1-643 (KRYSMR) | 31
44 | 6mer-1-644 (RKTWFR) | 31
45 | 6mer-1-645 (RRTTIR) | 33
46 | 6mer-1-646 (RRCTGK) | 33
47 | 6mer-1-647 (RKYNVR) | 14
48 | 6mer-1-648 (KKFWEK) | 17

Row | Substance | Binding affinity [Ru]
49 | 6mer-1-649 (RRIAGK) | 32
50 | 6mer-1-650 (RRCNNR) | 18
51 | 6mer-1-651 (KRICWK) | 27
52 | 6mer-1-652 (RRPEVK) | 26
53 | 6mer-1-653 (KRMTHR) | 15
54 | 6mer-1-654 (KRMNDR) | 23
55 | 6mer-1-655 (RKNMFR) | 12
56 | 6mer-1-656 (RRPTHK) | 28
57 | 6mer-1-657 (RRCTVR) | 17
58 | 6mer-1-658 (RKKEMK) | 20
59 | 6mer-1-659 (KKPSKR) | 29
60 | 6mer-1-660 (KKYHVK) | 31
61 | 6mer-1-661 (RKPKWR) | 14
62 | 6mer-1-662 (KKMTER) | 20
63 | 6mer-1-663 (KKFKDR) | 26
64 | 6mer-1-664 (KRDHIK) | 26
65 | 6mer-1-665 (KKCDGK) | 21
66 | 6mer-1-666 (KKAANK) | 18
67 | 6mer-1-667 (KRDSPK) | 32
68 | 6mer-1-668 (RKATVK) | 17
69 | 6mer-1-669 (KRNMAK) | 23
70 | 6mer-1-670 (KKDWNR) | 11
71 | 6mer-1-671 (KKNMVR) | 11
72 | 6mer-1-672 (RKMEIR) | 17

Row | Substance | Binding affinity [Ru]
73 | 6mer-1-673 (RRAMPK) | 16
74 | 6mer-1-674 (RKHPKK) | 32
75 | 6mer-1-675 (KKIWKR) | 21
76 | 6mer-1-676 (KRCPWR) | 16
77 | 6mer-1-677 (KKCCFR) | 22
78 | 6mer-1-678 (KRMAAK) | 25
79 | 6mer-1-679 (KKAEER) | 30
80 | 6mer-1-680 (KKDPPR) | 27
81 | 6mer-1-681 (KKEWKK) | 32
82 | 6mer-1-682 (KKKDIR) | 30
83 | 6mer-1-683 (KRDSMR) | 16
84 | 6mer-1-684 (KRNNDR) | 20
85 | 6mer-1-685 (RRESWK) | 14
86 | 6mer-1-686 (KKYEVR) | 25
87 | 6mer-1-687 (RREWIK) | 23
88 | 6mer-1-688 (RKDEVR) | 33
89 | 6mer-1-689 (KRCPVR) | 11
90 | 6mer-1-690 (KREAER) | 21
91 | 6mer-1-691 (RKPKAR) | 31
92 | 6mer-1-692 (RKNTHK) | 22
93 | 6mer-1-693 (RKIDMK) | 22
94 | 6mer-1-694 (RKYTKR) | 27
95 | 6mer-1-695 (KRADVK) | 13

Same assay, conditions: SPR, peptides tested at 10 μM; 6mer-1 Top sequence

Row | Substance | Binding affinity [Ru]
96 | 6mer-1-578 (RKGQYK) | 139
97 | 6mer-1-579 (KRSVRK) | 148
98 | 6mer-1-580 (KKSLQK) | 121
99 | 6mer-1-581 (KRGLYK) | 139
100 | 6mer-1-582 (KRWFLK) | 137
101 | 6mer-1-583 (KKVLYK) | 139
102 | 6mer-1-584 (RKQVSK) | 127
103 | 6mer-1-585 (RKSRQK) | 144
104 | 6mer-1-586 (KRVICK) | 136
105 | 6mer-1-587 (KKQLLK) | 148
106 | 6mer-1-588 (RRLVRK) | 153
107 | 6mer-1-589 (KKLQQK) | 139
108 | 6mer-1-590 (RKGVTK) | 142
109 | 6mer-1-591 (KKRLYR) | 147
110 | 6mer-1-592 (RRWLSK) | 135
111 | 6mer-1-593 (RKVYRK) | 148
112 | 6mer-1-594 (KRQLQR) | 121
113 | 6mer-1-595 (KKSLCK) | 121
114 | 6mer-1-596 (RKGVLR) | 148
115 | 6mer-1-597 (KRGFYK) | 148
116 | 6mer-1-598 (RKWLSK) | 142
117 | 6mer-1-599 (KKLYQR) | 124
118 | 6mer-1-600 (KRGYCR) | 139
